Measurements from patent US20220333113.
Positions count from the first letter of the chain named.

Experiments:
[1] = target: T1, RIG-I CTD (aa 792-925) (Homo sapiens) (UniProt O95786); assay: EMSA; conditions: J = PPdU at every J; SB18T0.01 + 20% glycerol, 1 mM DTT, 37 C
T1 sequence: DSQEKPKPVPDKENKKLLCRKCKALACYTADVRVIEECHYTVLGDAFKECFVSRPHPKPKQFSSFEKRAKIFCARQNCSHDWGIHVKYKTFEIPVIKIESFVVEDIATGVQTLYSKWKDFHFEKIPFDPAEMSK

[2] = target: T2, RIG-I helicase domain (aa 229-793) (Homo sapiens) (UniProt O95786); assay: filter; conditions: J = PPdU at every J; SB18T0.01 + 1 mM DTT, 37 C
T2 sequence: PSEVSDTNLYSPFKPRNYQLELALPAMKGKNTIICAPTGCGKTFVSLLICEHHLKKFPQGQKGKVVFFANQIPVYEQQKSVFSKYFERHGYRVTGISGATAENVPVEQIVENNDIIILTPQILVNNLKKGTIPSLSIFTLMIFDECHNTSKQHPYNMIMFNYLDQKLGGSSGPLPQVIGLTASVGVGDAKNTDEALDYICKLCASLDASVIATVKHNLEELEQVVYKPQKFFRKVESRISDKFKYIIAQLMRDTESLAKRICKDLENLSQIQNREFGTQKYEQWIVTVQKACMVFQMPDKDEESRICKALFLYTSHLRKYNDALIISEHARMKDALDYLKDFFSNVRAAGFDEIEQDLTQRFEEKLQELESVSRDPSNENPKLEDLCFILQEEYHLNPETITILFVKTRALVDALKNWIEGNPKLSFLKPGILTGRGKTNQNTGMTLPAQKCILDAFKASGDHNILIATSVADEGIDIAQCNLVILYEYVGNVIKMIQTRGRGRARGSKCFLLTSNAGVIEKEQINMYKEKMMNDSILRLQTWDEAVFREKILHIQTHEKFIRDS

[3] = target: T3, RIG-I K861A (Homo sapiens) (UniProt O95786); assay: filter; conditions: J = PPdU at every J; SB18T0.01 + 1 mM DTT, 37 C
T3 sequence: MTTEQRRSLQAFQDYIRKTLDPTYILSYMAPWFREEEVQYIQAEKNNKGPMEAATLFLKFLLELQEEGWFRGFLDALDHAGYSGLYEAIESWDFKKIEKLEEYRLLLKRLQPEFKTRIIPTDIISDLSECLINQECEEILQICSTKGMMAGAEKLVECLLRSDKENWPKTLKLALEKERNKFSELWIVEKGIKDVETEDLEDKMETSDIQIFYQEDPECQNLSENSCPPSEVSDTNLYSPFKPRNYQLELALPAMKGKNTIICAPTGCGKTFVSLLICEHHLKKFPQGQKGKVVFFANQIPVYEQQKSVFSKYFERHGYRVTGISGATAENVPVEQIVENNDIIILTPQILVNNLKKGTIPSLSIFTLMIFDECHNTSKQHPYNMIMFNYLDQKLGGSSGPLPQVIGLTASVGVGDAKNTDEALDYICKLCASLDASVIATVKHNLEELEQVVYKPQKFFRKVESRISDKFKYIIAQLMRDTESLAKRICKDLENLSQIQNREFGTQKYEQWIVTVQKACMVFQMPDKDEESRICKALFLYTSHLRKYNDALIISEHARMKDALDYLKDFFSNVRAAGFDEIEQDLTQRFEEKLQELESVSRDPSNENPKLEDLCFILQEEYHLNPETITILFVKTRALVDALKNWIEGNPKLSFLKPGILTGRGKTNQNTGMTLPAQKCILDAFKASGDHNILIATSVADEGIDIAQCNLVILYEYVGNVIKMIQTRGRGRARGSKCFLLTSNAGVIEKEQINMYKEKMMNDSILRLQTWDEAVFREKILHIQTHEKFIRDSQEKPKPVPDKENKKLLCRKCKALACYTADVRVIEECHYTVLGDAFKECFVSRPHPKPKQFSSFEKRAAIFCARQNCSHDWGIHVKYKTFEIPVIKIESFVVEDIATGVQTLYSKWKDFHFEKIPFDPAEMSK

[4] = target: T4, RIG-I H847A (Homo sapiens) (UniProt O95786); assay: filter; conditions: J = PPdU at every J; SB18T0.01 + 1 mM DTT, 37 C
T4 sequence: T3 sequence with H847A, A861K

ATCTCTGTGTCATGTGTTTTAATGTCAGTTTAATGATGAGG [14832-55_8]
Kd [1]: 0.019 nM | Kd [2]: 10 nM | Kd [3]: 0.89 nM | Kd [4]: 9.9 nM
